The values below come from US20110104143A1 (UAB RESEARCH FOUNDATION, published 2011).

Experiment [1] concerns the target T1, human DR5 (full-length) (human, UniProt O14763 56-440).
T1 construct: whole, on cells; Whole receptor on cells (flow cytometry) or in cell lysates (co-immunoprecipitation); also called TRAIL-R2; wild-type DR5
Description: co-immunoprecipitation using TRA-8, transfected HEK293A cells.
Description: (§1) After 24 hours following transfection, protein expression was determined by Western blot analysis using respective monoclonal antibody. For co-immunoprecipitation analysis, cells were lysed with immunoprecipitation-lysis buffer containing a protease inhibitor cocktail.
(§2) The composition of the DR5 DISC was determined as follows. […] The DR5 DISC was then precipitated overnight at 4° C. with 30 μl beads. After immunoprecipitation, the beads were washed four times with lysis buffer. The beads were then washed five times with 10 mM Tris buffer and resuspended in loading buffer for SDS-PAGE and immunoblotting analyses.

Experiment [2] concerns the target T1, human DR5 (full-length). Kind of experiment: cell-based or functional assay.
The target in experiment [3] is T1, human DR5 (full-length). Kind of experiment: cell-based or functional assay. The source holds these as a separate data set.
Experiment [4] deals with T2, cIAP1 (human, UniProt Q13490 1-618, limits assumed).
T2 construct: also called DR5-associated cIAP1; purified cIAP1
T2 sequence (Q13490 whole entry): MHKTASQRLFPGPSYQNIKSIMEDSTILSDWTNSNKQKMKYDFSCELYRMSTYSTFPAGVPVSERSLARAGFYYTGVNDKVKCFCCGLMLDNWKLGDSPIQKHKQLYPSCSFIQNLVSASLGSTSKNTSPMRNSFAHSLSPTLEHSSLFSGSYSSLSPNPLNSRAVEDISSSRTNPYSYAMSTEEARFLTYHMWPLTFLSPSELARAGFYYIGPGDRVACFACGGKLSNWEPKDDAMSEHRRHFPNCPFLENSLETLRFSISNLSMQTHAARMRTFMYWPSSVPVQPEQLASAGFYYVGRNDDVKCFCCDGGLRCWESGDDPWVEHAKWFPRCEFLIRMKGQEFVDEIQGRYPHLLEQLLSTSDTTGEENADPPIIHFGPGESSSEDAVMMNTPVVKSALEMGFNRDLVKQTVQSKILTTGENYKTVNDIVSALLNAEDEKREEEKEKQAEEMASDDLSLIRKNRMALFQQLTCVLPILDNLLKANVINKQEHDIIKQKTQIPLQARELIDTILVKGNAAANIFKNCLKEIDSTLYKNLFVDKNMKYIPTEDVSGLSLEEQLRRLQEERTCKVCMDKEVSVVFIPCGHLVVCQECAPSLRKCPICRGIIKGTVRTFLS
Kind of experiment: co-immunoprecipitation, transfected HEK293A cells.
Description: as §1

Experiment [5] addresses T2, cIAP1. Description: DR5 co-IP and Western blot with anti-DDX3 and anti-cIAP1 antibody. Background: Immunoblotting shows a protein as a band on a membrane.
The target in experiment [6] is T1, human DR5 (full-length). Kind of experiment: co-immunoprecipitation and Western blot with anti-6-His antibody, transfected MDA231 cells.
Description: as §2

B1: DDX3Δ1-350 (other, human, UniProt O00571 1-350, looked up, not shown: small tags and cut ends)
chain: MSHVAVENALGLDQQFAGLDLNSSDNQSGGSTASKGRYIPPHLRNREATKGFYDKDSSGWSSSKDKDAYSSFGSRSDSRGKSSFFSDRGSGSRGRFDDRGRSDYDGIGSRGDRSGFGKFERGGNSRWCDKSDEDDWSKPLPPSERLEQELFSGGNTGINFEKYDDIPVEATGNNCPPHIESFSDVEMGEIIMGNIELTRYTRPTPVQKHAIPIIKEKRDLMACAQTGSGKTAAFLLPILSQIYSDGPGEALRAMKENGRYGRRKQYPISLVLAPTRELAVQIYEEARKFSYRSRVRPCVVYGGADIGQQIRDLERGCHLLVATPGRLVDMMERGKIGLDFCKYLVLDEAD
notes: range 1-350; Name read as the residues kept; also called C-terminal deleted DDX3
As for B1, the binding result with human DR5 (full-length) [1] is on record as “no binding”.

B2: TRA-8 (anti-human DR5 monoclonal antibody) (antibody, V domains shown)
VH: EVMLVESGGGLVKPGGSLKLSCAASGFTFSSYVMSWVRQTPEKRLEWVATISSGGSYTYYPDSVKGRFTISRDNAKNTLYLQMSSLRSEDTAMYYCARRGDSMITTDYWGQGTTLTVSS
VL: DIVMTQSHKFMSTSVGDRVSITCKASQDVGTAVAWYQQKPGQSPKLLIYWASTRHTGVPDRFTGSGSGTDFTLTISNVQSEDLADYFCQQYSSYRTFGGGTKLEIKR
In the case of B2, in the experiment with human DR5 (full-length) [2], the “IC50 of TRA-8 cytotoxicity (ATP cell viability), BT-474 cells” value was over 1 mg/L; the “IC50 of TRA-8 cytotoxicity (ATP cell viability), DY36T2 (MDA-MB-361 subclone) cells” value is over 1 mg/L; the “IC50 of TRA-8 cytotoxicity (ATP cell viability), MCF-7 cells” value is over 1 mg/L; the “IC50 of TRA-8 cytotoxicity (ATP cell viability), MDA-MB-134 cells” value is over 1 mg/L. In addition, in the experiment with human DR5 (full-length) [2], the “IC50 of TRA-8 cytotoxicity (ATP cell viability), MDA-MB-453 cells” value was over 1 mg/L; the “IC50 of TRA-8 cytotoxicity (ATP cell viability), SK-BR-3 cells” value is over 1 mg/L; the “IC50 of TRA-8 cytotoxicity (ATP cell viability), T-47D cells” value was over 1 mg/L; the “IC50 of TRA-8 cytotoxicity (ATP cell viability), ZR-75-1 cells” value came to 0.683 mg/L. Moreover, in the experiment with human DR5 (full-length) [2], the “IC50 of TRA-8 cytotoxicity (ATP cell viability), ZR-75-30 cells” value is over 1 mg/L. Moreover, in the experiment with human DR5 (full-length) [3], the “IC50 of TRA-8 cytotoxicity (ATP cell viability), 2LMP cells” value came out at 0.0011 mg/L; the “IC50 of TRA-8 cytotoxicity (ATP cell viability), BT-20 cells” value is 0.048 mg/L; the “IC50 of TRA-8 cytotoxicity (ATP cell viability), BT-549 cells” value was 0.018 mg/L; the “IC50 of TRA-8 cytotoxicity (ATP cell viability), HCC38 cells” value worked out at 0.0009 mg/L. In the experiment with human DR5 (full-length) [3], the “IC50 of TRA-8 cytotoxicity (ATP cell viability), HCC1143 cells” value is over 1 mg/L; the “IC50 of TRA-8 cytotoxicity (ATP cell viability), HCC1187 cells” value was 0.024 mg/L; the “IC50 of TRA-8 cytotoxicity (ATP cell viability), HCC1599 cells” value is over 1 mg/L; the “IC50 of TRA-8 cytotoxicity (ATP cell viability), HCC1937 cells” value is over 1 mg/L. Besides, in the experiment with human DR5 (full-length) [3], the “IC50 of TRA-8 cytotoxicity (ATP cell viability), MDA-MB-152 cells” value came out at 0.012 mg/L; the “IC50 of TRA-8 cytotoxicity (ATP cell viability), MDA-MB-231 cells” value came to 0.018 mg/L; the “IC50 of TRA-8 cytotoxicity (ATP cell viability), MDA-MB-436 cells” value stood at 0.0032 mg/L; the “IC50 of TRA-8 cytotoxicity (ATP cell viability), MDA-MB-468 cells” value turned out to be 0.017 mg/L. Besides, in the experiment with human DR5 (full-length) [3], the “IC50 of TRA-8 cytotoxicity (ATP cell viability), SUM102 cells” value turned out to be 0.0045 mg/L; the “IC50 of TRA-8 cytotoxicity (ATP cell viability), SUM149 cells” value was determined as 0.0009 mg/L; the “IC50 of TRA-8 cytotoxicity (ATP cell viability), SUM159 cells” value was determined as 0.0019 mg/L.

B3: DDX3Δ101-662 (other)
chain: HHHHHHRSDYDGIGSRGDRSGFGKFERGGNSRWCDKSDEDDWSKPLPPSERLEQELFSGGNTGINFEKYDDIPVEATGNNCPPHIESFSDVEMGEIIMGNIELTRYTRPTPVQKHAIPIIKEKRDLMACAQTGSGKTAAFLLPILSQIYSDGPGEALRAMKENGRYGRRKQYPISLVLAPTRELAVQIYEEARKFSYRSRVRPCVVYGGADIGQQIRDLERGCHLLVATPGRLVDMMERGKIGLDFCKYLVLDEADRMLDMGFEPQIRRIVEQDTMPPKGVRHTMMFSATFPKEIQMLARDFLDEYIFLAVGRVGSTSENITQKVVWVEESDKRSFLLDLLNATGKDSLTLVFVETKKGADSLEDFLYHEGYACTSIHGDRSQRDREEALHQFRSGKSPILVATAVAARGLDISNVKHVINFDLPSDIEEYVHRIGRTGRVGNLGLATSFFNERNINITKDLLDLLVEAKQEVPSWLENMAYEHHYKGSSRGRSKSSRFSGGFGARDYRQSSGASSSSFSSSRASSSRSGGGGHGSSRGFGGGGYGGFYNSDGYGGNYNSQGVDWWGN
notes: also called DDX3 with the first 100 amino acids deleted; DN
Regarding B3, the binding result with cIAP1 [4] was “no binding”.

B4: DDX3ΔCARD (DDX3Δ151-662) (other, human, UniProt O00571 151-662, looked up, not shown: small tags and cut ends)
chain: FSGGNTGINFEKYDDIPVEATGNNCPPHIESFSDVEMGEIIMGNIELTRYTRPTPVQKHAIPIIKEKRDLMACAQTGSGKTAAFLLPILSQIYSDGPGEALRAMKENGRYGRRKQYPISLVLAPTRELAVQIYEEARKFSYRSRVRPCVVYGGADIGQQIRDLERGCHLLVATPGRLVDMMERGKIGLDFCKYLVLDEADRMLDMGFEPQIRRIVEQDTMPPKGVRHTMMFSATFPKEIQMLARDFLDEYIFLAVGRVGSTSENITQKVVWVEESDKRSFLLDLLNATGKDSLTLVFVETKKGADSLEDFLYHEGYACTSIHGDRSQRDREEALHQFRSGKSPILVATAVAARGLDISNVKHVINFDLPSDIEEYVHRIGRTGRVGNLGLATSFFNERNINITKDLLDLLVEAKQEVPSWLENMAYEHHYKGSSRGRSKSSRFSGGFGARDYRQSSGASSSSFSSSRASSSRSGGGGHGSSRGFGGGGYGGFYNSDGYGGNYNSQGVDWWGN
notes: also called dominant negative mutant DDX3 lacking amino acids 1-150; truncated DDX3
Take B4: the binding result in the experiment with cIAP1 [5] is reported as “no binding”.

B5: His-tagged DDX3 C-terminal fragment (amino acids 310-662) (other)
chain: HHHHHHIRDLERGCHLLVATPGRLVDMMERGKIGLDFCKYLVLDEADRMLDMGFEPQIRRIVEQDTMPPKGVRHTMMFSATFPKEIQMLARDFLDEYIFLAVGRVGSTSENITQKVVWVEESDKRSFLLDLLNATGKDSLTLVFVETKKGADSLEDFLYHEGYACTSIHGDRSQRDREEALHQFRSGKSPILVATAVAARGLDISNVKHVINFDLPSDIEEYVHRIGRTGRVGNLGLATSFFNERNINITKDLLDLLVEAKQEVPSWLENMAYEHHYKGSSRGRSKSSRFSGGFGARDYRQSSGASSSSFSSSRASSSRSGGGGHGSSRGFGGGGYGGFYNSDGYGGNYNSQGVDWWGN
notes: also called C-terminal deletion mutant
B5: the binding result with human DR5 (full-length) [6] is on record as “no binding”.
